{"source": "patent US20230303636A1", "about": "(UNIVERSITY COURT OF THE UNIVERSITY OF GLASGOW, published 2023)", "binders": {"B1": {"name": "pyocin AP41 immunity protein with C-terminal His6-tag (other)", "chain": "MDIKNNLSDYTESEFLEIIEEFFKNKSGLKGSELEKRMDKLVKHFEEVTSHPRKSGVIFHPKPGFETPEGIVKEVKEWRAANGLPGFKAG", "notes": "It is not explicitly tied to the C763 construct; also called ImAP41; not shown: C-terminal His6-tag from pET21a (XhoI site in place of the stop codon)"}, "B2": {"name": "pyocin S2 immunity protein (other)", "chain": "MKSKISEYTEKEFLEFVKDIYTNNKKKFPTEESHIQAVLEFKKLTEHPSGSDLLYYPNENREDSPAGVVKEVKEWRASKGLPGFKAG", "notes": "also called ImS2"}}, "key": {"[1]": {"biological_target": "T1, pyocin AP41 (Pseudomonas aeruginosa (gene amplified …))", "T1 chain": "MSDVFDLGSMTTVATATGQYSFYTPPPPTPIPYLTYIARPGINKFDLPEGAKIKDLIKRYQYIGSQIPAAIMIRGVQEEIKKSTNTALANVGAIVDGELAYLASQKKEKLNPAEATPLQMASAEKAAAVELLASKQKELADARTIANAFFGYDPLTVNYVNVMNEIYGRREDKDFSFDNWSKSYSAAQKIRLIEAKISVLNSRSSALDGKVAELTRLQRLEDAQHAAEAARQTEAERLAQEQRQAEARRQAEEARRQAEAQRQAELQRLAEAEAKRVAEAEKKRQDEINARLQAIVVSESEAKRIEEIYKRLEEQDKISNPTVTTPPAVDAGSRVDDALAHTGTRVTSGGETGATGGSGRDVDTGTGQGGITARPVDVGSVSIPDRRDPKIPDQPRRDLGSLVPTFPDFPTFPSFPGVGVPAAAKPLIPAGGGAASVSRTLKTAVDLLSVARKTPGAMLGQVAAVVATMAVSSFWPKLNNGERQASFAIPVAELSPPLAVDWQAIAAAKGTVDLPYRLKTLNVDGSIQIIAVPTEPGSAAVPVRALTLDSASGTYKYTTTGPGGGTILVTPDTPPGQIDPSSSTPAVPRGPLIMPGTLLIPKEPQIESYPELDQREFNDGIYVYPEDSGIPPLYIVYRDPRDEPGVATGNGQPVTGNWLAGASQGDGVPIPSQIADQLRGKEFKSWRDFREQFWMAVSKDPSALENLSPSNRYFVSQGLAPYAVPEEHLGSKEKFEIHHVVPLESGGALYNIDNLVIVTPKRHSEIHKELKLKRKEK", "experiment": "co-expression in E. coli; complex purified on a His Trap column and by gel filtration"}, "[2]": {"biological_target": "pyocin S2 (Pseudomonas aeruginosa, UniProt Q06584 1-689)", "sequence (Q06584 whole entry)": "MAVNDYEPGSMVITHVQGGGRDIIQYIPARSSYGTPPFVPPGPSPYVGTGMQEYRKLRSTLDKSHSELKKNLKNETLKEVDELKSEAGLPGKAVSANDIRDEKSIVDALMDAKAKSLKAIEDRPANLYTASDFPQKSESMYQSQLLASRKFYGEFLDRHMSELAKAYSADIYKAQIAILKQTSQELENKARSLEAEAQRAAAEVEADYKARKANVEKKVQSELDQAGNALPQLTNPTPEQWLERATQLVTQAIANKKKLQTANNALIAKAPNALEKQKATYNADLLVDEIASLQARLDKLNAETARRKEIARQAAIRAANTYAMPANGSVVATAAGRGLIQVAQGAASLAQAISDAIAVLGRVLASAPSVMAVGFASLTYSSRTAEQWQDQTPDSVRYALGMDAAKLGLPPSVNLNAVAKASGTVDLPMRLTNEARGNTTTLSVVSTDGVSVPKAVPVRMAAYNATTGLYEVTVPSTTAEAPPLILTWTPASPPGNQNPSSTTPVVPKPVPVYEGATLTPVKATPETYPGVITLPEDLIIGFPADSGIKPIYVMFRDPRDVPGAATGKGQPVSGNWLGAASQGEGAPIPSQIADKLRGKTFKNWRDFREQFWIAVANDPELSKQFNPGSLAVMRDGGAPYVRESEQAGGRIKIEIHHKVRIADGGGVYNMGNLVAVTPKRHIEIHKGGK", "experiment": "purification of the complex, method only by reference"}}, "data": [{"binder": "B1", "values": [{"measurement": "binding result", "setting": "[1]", "value": "binds"}]}, {"binder": "B2", "values": [{"measurement": "binding result", "setting": "[2]", "value": "binds"}]}]}
